Experimental data from the supplement of paper PMC5998384.

Columns and labels:
HeLa Kyoto [1] = test: solubility change mitosis vs G1/S (difference of NP-40 vs SDS log2 ratios) (log2 ratio difference); higher = more soluble in mitosis
HeLa Kyoto [2] = test: melting temperature (median over replicates), in situ; higher = more thermally stable
HeLa Kyoto [3] = test: solubility in G1/S (NP-40 vs SDS abundance) (log2 ratio); higher = more soluble; settings: cell cycle stage: G1/S
HeLa Kyoto [4] = test: thermal stability score vs G1/S (z-score of summed log2 fold changes over temperatures); higher = more thermally stable than in G1/S
[5] = cell cycle stage: early G1 (4.5 h after nocodazole release)
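Throughout, for melting temperature (median over replicates), in situ: HeLa Kyoto cells synchronized by double thymidine or nocodazole block, proteins quantified by TMT10plex mass spectrometry, three independent biological replicates.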
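Throughout, for solubility change mitosis vs G1/S (difference of NP-40 vs SDS log2 ratios): synchronized HeLa Kyoto cells (double thymidine block for G1/S, nocodazole release for mitosis), protein amounts in NP-40 versus SDS lysates quantified by mass spectrometry, three biological replicates.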
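Throughout, for solubility in G1/S (NP-40 vs SDS abundance): HeLa Kyoto cells arrested at G1/S by double thymidine block, proteins quantified by TMT10plex mass spectrometry in mild NP-40 versus SDS extracts, three biological replicates.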
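Throughout, for thermal stability score vs G1/S (z-score of summed log2 fold changes over temperatures): synchronized HeLa Kyoto cells, proteins quantified by TMT10plex mass spectrometry, three biological replicates, mitosis taken 0.5 h after nocodazole release, G1/S directly after double thymidine block.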

Substance | solubility change mitosis (log2) (HeLa Kyoto [1]) | melting temperature (HeLa Kyoto [2]; cell cycle stage: G1/S) | melting temperature (HeLa Kyoto [2]; cell cycle stage: mitosis) | solubility in G1/S (log2) (HeLa Kyoto [3]) | thermal stability score (HeLa Kyoto [4]; [5]) | thermal stability score (HeLa Kyoto [4]; cell cycle stage: mitosis)
MLHLSAAPPAPPPEVTATARPCLCSVGRRGDGGKMAAAGALERSFVELSGAERERPRHFREFTVCSIGTANAVAGAVKYSESAGGFYYVESGKLFSVTRNRFIHWKTSGDTLELMEESLDINLLNNAIRLKFQNCSVLPGGVYVSETQNRVIILMLTNQTVHRLLLPHPSRMYRSELVVDSQMQSIFTDIGKVDFTDPCNYQLIPAVPGISPNSTASTAWLSSDGEALFALPCASGGIFVLKLPPYDIPGMVSVVELKQSSVMQRLLTGWMPTAIRGDQSPSDRPLSLAVHCVEHDAFIFALCQDHKLRMWSYKEQMCLMVADMLEYVPVKKDLRLTAGTGHKLRLAYSPTMGLYLGIYMHAPKRGQFCIFQLVSTESNRYSLDHISSLFTSQETLIDFALTSTDIWALWHDAENQTVVKYINFEHNVAGQWNPVFMQPLPEEEIVIRDDQDPREMYLQSLFTPGQFTNEALCKALQIFCRGTERNLDLSWSELKKEVTLAVENELQGSVTEYEFSQEEFRNLQQEFWCKFYACCLQYQEALSHPLALHLNPHTNMVCLLKKGYLSFLIPSSLVDHLYLLPYENLLTEDETTISDDVDIARDVICLIKCLRLIEESVTVDMSVIMEMSCYNLQSPEKAAEQILEDMITIDVENVMEDICSKLQEIRNPIHAIGLLIREMDYETEVEMEKGFNPAQPLNIRMNLTQLYGSNTAGYIVCRGVHKIASTRFLICRDLLILQQLLMRLGDAVIWGTGQLFQAQQDLLHRTAPLLLSYYLIKWGSECLATDVPLDTLESNLQHLSVLELTDSGALMANRFVSSPQTIVELFFQEVARKHIISHLFSQPKAPLSQTGLNWPEMITAITSYLLQLLWPSNPGCLFLECLMGNCQYVQLQDYIQLLHPWCQVNVGSCRFMLGRCYLVTGEGQKALECFCQAASEVGKEEFLDRLIRSEDGEIVSTPRLQYYDKVLRLLDVIGLPELVIQLATSAITEAGDDWKSQATLRTCIFKHHLDLGHNSQAYEALTQIPDSSRQLDCLRQLVVVLCERSQLQDLVEFPYVNLHNEVVGIIESRARAVDLMTHNYYELLYAFHIYRHNYRKAGTVMFEYGMRLGREVRTLRGLEKQGNCYLAALNCLRLIRPEYAWIVQPVSGAVYDRPGASPKRNHDGECTAAPTNRQIEILELEDLEKECSLARIRLTLAQHDPSAVAVAGSSSAEEMVTLLVQAGLFDTAISLCQTFKLPLTPVFEGLAFKCIKLQFGGEAAQAEAWAWLAANQLSSVITTKESSATDEAWRLLSTYLERYKVQNNLYHHCVINKLLSHGVPLPNWLINSYKKVDAAELLRLYLNYDLLEEAVDLVSEYVDAVLGKGHQYFGIEFPLSATAPMVWLPYSSIDQLLQALGENSANSHNIALSQKILDKLEDYQQKVDKATRDLLYRRTL [NUP160] | 0.135 | 52.1 °C | 49.4 °C | -0.58 | -3.22 | -3.66
MLKALFLTMLTLALVKSQDTEETITYTQCTDGYEWDPVRQQCKDIDECDIVPDACKGGMKCVNHYGGYLCLPKTAQIIVNNEQPQQETQPAEGTSGATTGVVAASSMATSGVLPGGGFVASAAAVAGPEMQTGRNNFVIRRNPADPQRIPSNPSHRIQCAAGYEQSEHNVCQDIDECTAGTHNCRADQVCINLRGSFACQCPPGYQKRGEQCVDIDECTIPPYCHQRCVNTPGSFYCQCSPGFQLAANNYTCVDINECDASNQCAQQCYNILGSFICQCNQGYELSSDRLNCEDIDECRTSSYLCQYQCVNEPGKFSCMCPQGYQVVRSRTCQDINECETTNECREDEMCWNYHGGFRCYPRNPCQDPYILTPENRCVCPVSNAMCRELPQSIVYKYMSIRSDRSVPSDIFQIQATTIYANTINTFRIKSGNENGEFYLRQTSPVSAMLVLVKSLSGPREHIVDLEMLTVSSIGTFRTSSVLRLTIIVGPFSF [EFEMP1] | -0.165 | 54.2 °C | 54.1 °C | -0.278 | 4.52 | 3.96
MLKFRTVHGGLRLLGIRRTSTAPAASPNVRRLEYKPIKKVMVANRGEIAIRVFRACTELGIRTVAIYSEQDTGQMHRQKADEAYLIGRGLAPVQAYLHIPDIIKVAKENNVDAVHPGYGFLSERADFAQACQDAGVRFIGPSPEVVRKMGDKVEARAIAIAAGVPVVPGTDAPITSLHEAHEFSNTYGFPIIFKAAYGGGGRGMRVVHSYEELEENYTRAYSEALAAFGNGALFVEKFIEKPRHIEVQILGDQYGNILHLYERDCSIQRRHQKVVEIAPAAHLDPQLRTRLTSDSVKLAKQVGYENAGTVEFLVDRHGKHYFIEVNSRLQVEHTVTEEITDVDLVHAQIHVAEGRSLPDLGLRQENIRINGCAIQCRVTTEDPARSFQPDTGRIEVFRSGEGMGIRLDNASAFQGAVISPHYDSLLVKVIAHGKDHPTAATKMSRALAEFRVRGVKTNIAFLQNVLNNQQFLAGTVDTQFIDENPELFQLRPAQNRAQKLLHYLGHVMVNGPTTPIPVKASPSPTDPVVPAVPIGPPPAGFRDILLREGPEGFARAVRNHPGLLLMDTTFRDAHQSLLATRVRTHDLKKIAPYVAHNFSKLFSMENWGGATFDVAMRFLYECPWRRLQELRELIPNIPFQMLLRGANAVGYTNYPDNVVFKFCEVAKENGMDVFRVFDSLNYLPNMLLGMEAAGSAGGVVEAAISYTGDVADPSRTKYSLQYYMGLAEELVRAGTHILCIKDMAGLLKPTACTMLVSSLRDRFPDLPLHIHTHDTSGAGVAAMLACAQAGADVVDVAADSMSGMTSQPSMGALVACTRGTPLDTEVPMERVFDYSEYWEGARGLYAAFDCTATMKSGNSDVYENEIPGGQYTNLHFQAHSMGLGSKFKEVKKAYVEANQMLGDLIKVTPSSKIVGDLAQFMVQNGLSRAEAEAQAEELSFPRSVVEFLQGYIGVPHGGFPEPFRSKVLKDLPRVEGRPGASLPPLDLQALEKELVDRHGEEVTPEDVLSAAMYPDVFAHFKDFTATFGPLDSLNTRLFLQGPKIAEEFEVELERGKTLHIKALAVSDLNRAGQRQVFFELNGQLRSILVKDTQAMKEMHFHPKALKDVKGQIGAPMPGKVIDIKVVAGAKVAKGQPLCVLSAMKMETVVTSPMEGTVRKVHVTKDMTLEGDDLILEIE [PC] | -0.101 | 51.4 °C | 51.5 °C | -0.0111 | -1.77 | -2.7
MLKQILSEMYIDPDLLAELSEEQKQILFFKMREEQIRRWKEREAAMERKESLPVKPRPKKENGKSVHWKLGADKEVWVWVMGEHHLDKPYDVLCNEIIAERARLKAEQEAEEPRKTHSEEFTNSLKTKSQYHDLQAPDNQQTKDIWKKVAEKEELEQGSRPAPTLEEEKIRSLSSSSRNIQQMLADSINRMKAYAFHQKKESMKKKQDEEINQIEEERTKQICKSWKEDSEWQASLRKSKAADEKRRSLAKQAREDYKRLSLGAQKGRGGERLQSPLRVPQKPERPPLPPKPQFLNSGAYPQKPLRNQGVVRTLSSSAQEDIIRWFKEEQLPLRAGYQKTSDTIAPWFHGILTLKKANELLLSTGMPGSFLIRVSERIKGYALSYLSEDGCKHFLIDASADAYSFLGVDQLQHATLADLVEYHKEEPITSLGKELLLYPCGQQDQLPDYLELFE [SH2D4A] | -0.0397 | 49 °C | 49.5 °C | 0.308 | -0.202 | 0.42
MLKSKTFLKKTRAGGVMKIVREHYLRDDIGCGAPGCAACGGAHEGPALEPQPQDPASSVCPQPHYLLPDTNVLLHQIDVLEDPAIRNVIVLQTVLQEVRNRSAPVYKRIRDVTNNQEKHFYTFTNEHHRETYVEQEQGENANDRNDRAIRVAAKWYNEHLKKMSADNQLQVIFITNDRRNKEKAIEEGIPAFTCEEYVKSLTANPELIDRLACLSEEGNEIESGKIIFSEHLPLSKLQQGIKSGTYLQGTFRASRENYLEATVWIHGDNEENKEIILQGLKHLNRAVHEDIVAVELLPKSQWVAPSSVVLHDEGQNEEDVEKEEETERMLKTAVSEKMLKPTGRVVGIIKRNWRPYCGMLSKSDIKESRRHLFTPADKRIPRIRIETRQASTLEGRRIIVAIDGWPRNSRYPNGHFVRNLGDVGEKETETEVLLLEHDVPHQPFSQAVLSFLPKMPWSITEKDMKNREDLRHLCICSVDPPGCTDIDDALHCRELENGNLEVGVHIADVSHFIRPGNALDQESARRGTTVYLCEKRIDMVPELLSSNLCSLKCDVDRLAFSCIWEMNHNAEILKTKFTKSVINSKASLTYAEAQLRIDSANMNDDITTSLRGLNKLAKILKKRRIEKGALTLSSPEVRFHMDSETHDPIDLQTKELRETNSMVEEFMLLANISVAKKIHEEFSEHALLRKHPAPPPSNYEILVKAARSRNLEIKTDTAKSLAESLDQAESPTFPYLNTLLRILATRCMMQAVYFCSGMDNDFHHYGLASPIYTHFTSPIRRYADVIVHRLLAVAIGADCTYPELTDKHKLADICKNLNFRHKMAQYAQRASVAFHTQLFFKSKGIVSEEAYILFVRKNAIVVLIPKYGLEGTVFFEEKDKPNPQLIYDDEIPSLKIEDTVFHVFDKVKVKIMLDSSNLQHQKIRMSLVEPQIPGISIPTDTSNMDLNGPKKKKMKLGK [DIS3] | -0.0946 | 47.9 °C | 49.2 °C | -0.0366 | 1.5 | 3.37
MLLLAAAFLVAFVLLLYMVSPLISPKPLALPGAHVVVTGGSSGIGKCIAIECYKQGAFITLVARNEDKLLQAKKEIEMHSINDKQVVLCISVDVSQDYNQVENVIKQAQEKLGPVDMLVNCAGMAVSGKFEDLEVSTFERLMSINYLGSVYPSRAVITTMKERRVGRIVFVSSQAGQLGLFGFTAYSASKFAIRGLAEALQMEVKPYNVYITVAYPPDTDTPGFAEENRTKPLETRLISETTSVCKPEQVAKQIVKDAIQGNFNSSLGSDGYMLSALTCGMAPVTSITEGLQQVVTMGLFRTIALFYLGSFDSIVRRCMMQREKSENADKTA [KDSR] | -0.0925 | 60 °C | 57.9 °C | -0.701 | -2.49 | -3.38
MLLPLLLLLPMCWAVEVKRPRGVSLTNHHFYDESKPFTCLDGSATIPFDQVNDDYCDCKDGSDEPGTAACPNGSFHCTNTGYKPLYIPSNRVNDGVCDCCDGTDEYNSGVICENTCKEKGRKERESLQQMAEVTREGFRLKKILIEDWKKAREEKQKKLIELQAGKKSLEDQVEMLRTVKEEAEKPEREAKEQHQKLWEEQLAAAKAQQEQELAADAFKELDDDMDGTVSVTELQTHPELDTDGDGALSEAEAQALLSGDTQTDATSFYDRVWAAIRDKYRSEALPTDLPAPSAPDLTEPKEEQPPVPSSPTEEEEEEEEEEEEEAEEEEEEEDSEEAPPPLSPPQPASPAEEDKMPPYDEQTQAFIDAAQEARNKFEEAERSLKDMEESIRNLEQEISFDFGPNGEFAYLYSQCYELTTNEYVYRLCPFKLVSQKPKLGGSPTSLGTWGSWIGPDHDKFSAMKYEQGTGCWQGPNRSTTVRLLCGKETMVTSTTEPSRCEYLMELMTPAACPEPPPEAPTEDDHDEL [PRKCSH] | -0.0303 | 55 °C | 57.4 °C | 0.337 | 0.00878 | 0.443
MLLSLVLHTYSMRYLLPSVVLLGTAPTYVLAWGVWRLLSAFLPARFYQALDDRLYCVYQSMVLFFFENYTGVQILLYGDLPKNKENIIYLANHQSTVDWIVADILAIRQNALGHVRYVLKEGLKWLPLYGCYFAQHGGIYVKRSAKFNEKEMRNKLQSYVDAGTPMYLVIFPEGTRYNPEQTKVLSASQAFAAQRGLAVLKHVLTPRIKATHVAFDCMKNYLDAIYDVTVVYEGKDDGGQRRESPTMTEFLCKECPKIHIHIDRIDKKDVPEEQEHMRRWLHERFEIKDKMLIEFYESPDPERRKRFPGKSVNSKLSIKKTLPSMLILSGLTAGMLMTDAGRKLYVNTWIYGTLLGCLWVTIKA [AGPAT5] | -0.0679 | 52.1 °C | 52.6 °C | -0.125 | 0.0279 | -1.01
MLLT4 | 0.00908 | 50.9 °C | 50.3 °C | -0.184 | -0.182 | -0.125
MLPAALLRRPGLGRLVRHARAYAEAAAAPAAASGPNQMSFTFASPTQVFFNGANVRQVDVPTLTGAFGILAAHVPTLQVLRPGLVVVHAEDGTTSKYFVSSGSIAVNADSSVQLLAEEAVTLDMLDLGAAKANLEKAQAELVGTADEATRAEIQIRIEANEALVKALE [ATP5D] | -0.0082 | 55.7 °C | 54.5 °C | 0.603 | -2.35 | -1.13
